# Data published in patent publication US20220288204A1, “DOSAGE AND ADMINISTRATION OF ANTI-ERBB3 (HER3) MONOCLONAL ANTIBODIES TO TREAT TUMORS ASSOCIATED WITH NEUREGULIN 1 (NRG1) GENE FUSIONS” (ELEVATION ONCOLOGY, INC., priority 2021, published 2022).
# B1: seribantumab: anti-ERBB3 (HER3) fully human monoclonal antibody; heavy and light chains SEQ ID NOs: 12 and 13 (antibody)
# heavy: EVQLLESGGGLVQPGGSLRLSCAASGFTFSHYVMAWVRQAPGKGLEWVSSISSSGGWTLYADSVKGRFTISRDNSKNTLYLQMNSLRAEDTAVYYCTRGLKMATIFDYWGQGTLVTVSSASTKGPSVFPLAPCSRSTSESTAALGCLVKDYFPEPVTVSWNSGALTSGVHTFPAVLQSSGLYSLSSVVTVPSSNFGTQTYTCNVDHKPSNTKVDKTVERKCCVECPPCPAPPVAGPSVFLFPPKPKDTLMISRTPEVTCVVVDVSHEDPEVQFNWYVDGVEVHNAKTKPREEQFNSTFRVVSVLTVVHQDWLNGKEYKCKVSNKGLPAPIEKTISKTKGQPREPQVYTLPPSREEMTKNQVSLTCLVKGFYPSDIAVEWESNGQPENNYKTTPPMLDSDGSFFLYSKLTVDKSRWQQGNVFSCSVMHEALHNHYTQKSLSLSPGK
# light: QSALTQPASVSGSPGQSITISCTGTSSDVGSYNVVSWYQQHPGKAPKLIIYEVSQRPSGVSNRFSGSKSGNTASLTISGLQTEDEADYYCCSYAGSSIFVIFGGGTKVTVLGQPKAAPSVTLFPPSSEELQANKATLVCLVSDFYPGAVTVAWKADGSPVKVGVETTKPSKQSNNKYAASSYLSLTPEQWKSHRSYSCRVTHEGSTVEKTVAPAECS
# Tested on: NRG1-β1-stimulated MCF-7 cells
# Assay: NRG1-β1-stimulated growth of MCF-7 cells
# Assay type: cell-based, human
# Procedure: MCF-7 cells were treated with the indicated concentrations of NRG1-b1 for 10 minutes, and then cell extracts were prepared and subjected to Western blotting for the indicated phosphorylated (p) or total (t) proteins (FIG. 2A). […] Data were analyzed by nonlinear regression using GraphPad Prism 8. There were four replicates of each condition and data represent the mean±SD. […] Cells were counted on the days indicated on the graph. Results represent the mean±SD of duplicates of each condition in one representative experiment. MDA-MB-175-VII (FIG. 2D) and LUAD-0061AS3 (FIG. 2E) cells were treated with the indicated concentrations of inhibitors for 48 hours, and then caspase 3/7 enzymatic activity was measured in cell homogenates. Carfilzomib (20S proteasome inhibitor) was used as a positive control for apoptosis. […]
# For the time-course experiments, cells were plated at a density of 5,000 (HCC-95) or 10,000 (all others) cells per well in 12-well tissue culture plates, and then treated 24 hours later (time 0) with the respective agents. […] Cells were trypsinized and counted at the relevant time-point shown on the graphs. […] AlamarBlue is a cell permeable […] dye that is reduced when it enters the mitochondria and emits fluorescence at a different wavelength (Gloeckner H, J. Immunol. Methods 2001; 252:131-8). […]
molecule,measurement,setting,value
B1,"NRG1-β1-stimulated growth, temporal study","pretreated 2 μmol/L seribantumab 1 hour, 10 ng/mL NRG1-β1, up to 10 days",prevented NRG1-β1-stimulated growth completely
same,growth (viability) of NRG1-β1-stimulated cells,"seribantumab 0.125 μmol/L (lowest used), NRG1-β1 0-5 ng/mL, 96 hours",largely suppressed growth
